Data published in article doi:10.1101/2020.09.17.302869.
Read-outs that look alike come from different tables or passages of the source.

What was measured:
Experiment in all cases: MST
[1] = target: sarco/endoplasmic reticulum Ca2+-ATPase (SERCA), native rabbit, detergent solubilized (rabbit) (UniProt P04191)
[2] = target: sarco/endoplasmic reticulum Ca2+-ATPase (SERCA), native rabbit, detergent solubilized (rabbit) (UniProt P04191); remark: listed apart in the source
[3] = target: sarco/endoplasmic reticulum Ca2+-ATPase (SERCA), native rabbit, detergent solubilized (rabbit) (UniProt P04191); remark: listed apart in the source

UniProt P04191, sequence (P04191 whole entry): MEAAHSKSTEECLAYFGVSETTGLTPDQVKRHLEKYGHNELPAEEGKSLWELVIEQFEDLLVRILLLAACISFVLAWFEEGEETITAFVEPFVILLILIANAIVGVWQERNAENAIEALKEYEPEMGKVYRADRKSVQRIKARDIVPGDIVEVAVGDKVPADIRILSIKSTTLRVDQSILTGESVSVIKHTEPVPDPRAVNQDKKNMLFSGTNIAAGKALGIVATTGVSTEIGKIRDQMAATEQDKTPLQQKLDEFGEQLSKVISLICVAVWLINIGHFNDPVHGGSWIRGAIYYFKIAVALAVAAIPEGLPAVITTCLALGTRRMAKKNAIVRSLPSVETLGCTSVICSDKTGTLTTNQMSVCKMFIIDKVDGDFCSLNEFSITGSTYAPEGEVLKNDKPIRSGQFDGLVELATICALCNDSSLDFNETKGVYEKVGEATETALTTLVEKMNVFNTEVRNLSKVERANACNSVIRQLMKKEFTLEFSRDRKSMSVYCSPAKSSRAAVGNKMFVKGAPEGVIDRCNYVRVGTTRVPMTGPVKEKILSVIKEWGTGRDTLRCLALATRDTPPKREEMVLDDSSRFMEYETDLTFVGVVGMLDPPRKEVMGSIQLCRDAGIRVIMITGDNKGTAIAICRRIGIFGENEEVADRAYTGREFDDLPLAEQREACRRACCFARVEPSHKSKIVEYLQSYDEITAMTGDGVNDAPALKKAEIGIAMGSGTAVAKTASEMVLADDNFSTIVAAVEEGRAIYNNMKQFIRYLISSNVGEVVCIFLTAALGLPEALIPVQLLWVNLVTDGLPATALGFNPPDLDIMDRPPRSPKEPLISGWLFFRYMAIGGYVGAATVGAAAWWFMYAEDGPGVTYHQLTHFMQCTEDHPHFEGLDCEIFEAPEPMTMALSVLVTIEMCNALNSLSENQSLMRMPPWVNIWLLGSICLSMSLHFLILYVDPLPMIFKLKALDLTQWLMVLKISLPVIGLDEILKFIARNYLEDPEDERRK

B1: rabbit HRC (496-656) (domain or fragment)
chain: STENGHQAHRHQGHGKEEAEVTSDEHHHHVPDHGHQGHGDKEGEEEGVSTDHWHQVPRHAHHGPGGEEEGGEEELTVKAGHHVASHPPPGHRSREGHAEEHQTEVPGHHQHRMGDTDTSAERGHPASSPRQQGHPPEDTVHHHRGSLKEEVGPESPGPAGV
Kd [1]: 0.14 µM | fold decrease in affinity with increased KCl concentration [1]: > 100 fold | fold decrease in affinity, 200 mM against 50 mM KCl [1]: > 300 fold | Kd [2]: 5.6 µM | Kd [3]: 0.5 to 1 µM

B2: rabbit HRC (458-640) (domain or fragment)
chain: GEEEDEDDDDEGEHHHVPHRGHRGHEEDDGGDDDDGDDSTENGHQAHRHQGHGKEEAEVTSDEHHHHVPDHGHQGHGDKEGEEEGVSTDHWHQVPRHAHHGPGGEEEGGEEELTVKAGHHVASHPPPGHRSREGHAEEHQTEVPGHHQHRMGDTDTSAERGHPASSPRQQGHPPEDTVHHHRG
fold loss of affinity on removal of residues 640-666 [1]: 10 fold

B3: rabbit HRC (458-520) (domain or fragment)
chain: GEEEDEDDDDEGEHHHVPHRGHRGHEEDDGGDDDDGDDSTENGHQAHRHQGHGKEEAEVTSDE
fold reduction of affinity by C-terminal truncation [1]: > 1000 fold
